Literature values in publication PMC4752257.
pKd: −log10 of the molar value.

Target: IL-4R alpha (Homo sapiens) (UniProt P24394)
UniProt P24394, sequence (P24394 26-232): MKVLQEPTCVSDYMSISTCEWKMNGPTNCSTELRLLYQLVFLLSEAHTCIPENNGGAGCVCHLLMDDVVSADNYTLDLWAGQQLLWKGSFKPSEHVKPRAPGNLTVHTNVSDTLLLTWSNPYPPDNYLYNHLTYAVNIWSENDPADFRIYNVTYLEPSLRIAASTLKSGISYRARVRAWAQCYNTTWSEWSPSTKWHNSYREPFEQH

- pKd: 9.22
Substance: IL-4 (from UniProt P05112)
